The numbers were not newly measured in publication PMC8909277, which cites them from elsewhere.

One data set deals with claudin-9 (Homo sapiens) (UniProt O95484). Description: BLI.
For the next data set, the target named is claudin-4 (Homo sapiens) (UniProt O14493). Kind of data set: SPR. On the technique in general: In SPR one partner is held on a chip, and binding of the other changes the refractive index at the surface.

pKd: −log10 of the molar value.

Chain of UniProt O95484 (O95484 whole entry): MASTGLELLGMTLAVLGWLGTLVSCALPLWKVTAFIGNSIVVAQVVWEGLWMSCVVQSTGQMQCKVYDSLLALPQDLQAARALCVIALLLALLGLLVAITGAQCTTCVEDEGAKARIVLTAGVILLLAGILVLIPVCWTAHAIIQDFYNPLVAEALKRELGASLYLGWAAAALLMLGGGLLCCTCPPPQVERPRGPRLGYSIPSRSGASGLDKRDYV
Chain of UniProt O14493 (O14493 whole entry): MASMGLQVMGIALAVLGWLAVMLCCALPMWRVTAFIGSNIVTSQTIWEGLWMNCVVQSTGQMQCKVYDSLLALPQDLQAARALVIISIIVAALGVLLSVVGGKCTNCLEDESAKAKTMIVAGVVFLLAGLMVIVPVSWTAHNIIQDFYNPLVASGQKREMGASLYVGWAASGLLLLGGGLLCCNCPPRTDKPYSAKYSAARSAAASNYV

For CpE (from UniProt P01558), in the data set with claudin-9 (Homo sapiens), the pKd was 8.30.

In the case of “cCpE C-terminal domain (from UniProt P01558)”, the pKd in the data set with claudin-4 (Homo sapiens) was 8.47; with claudin-9 (Homo sapiens), 8.30.

Broadly, the pKd is the negative decadic logarithm of the Kd, by convention in mol/L.
